The record followed here is the supplement of paper PMC5998384.

Series [1] deals with HeLa Kyoto. As to the kind of experiment: solubility change mitosis vs G1/S (difference of NP-40 vs SDS log2 ratios) (log2 ratio difference); higher = more soluble in mitosis.
Series [2] has as its system HeLa Kyoto. As to the kind of experiment: solubility in G1/S (NP-40 vs SDS abundance) (log2 ratio); higher = more soluble. As to conditions: cell cycle stage: G1/S.
Series [3] concerns HeLa Kyoto. Briefly: thermal stability score vs G1/S (z-score of summed log2 fold changes over temperatures); higher = more thermally stable than in G1/S.
Series [4] has as its system HeLa Kyoto. As to the kind of experiment: melting temperature (median over replicates), in situ; higher = more thermally stable.
The mark [5] stands for this setting: cell cycle stage: early G1 (4.5 h after nocodazole release).
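For melting temperature (median over replicates), in situ in this document: HeLa Kyoto cells synchronized by double thymidine or nocodazole block, proteins quantified by TMT10plex mass spectrometry, three independent biological replicates.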
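For solubility change mitosis vs G1/S (difference of NP-40 vs SDS log2 ratios) in this document: synchronized HeLa Kyoto cells (double thymidine block for G1/S, nocodazole release for mitosis), protein amounts in NP-40 versus SDS lysates quantified by mass spectrometry, three biological replicates.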
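For solubility in G1/S (NP-40 vs SDS abundance) in this document: HeLa Kyoto cells arrested at G1/S by double thymidine block, proteins quantified by TMT10plex mass spectrometry in mild NP-40 versus SDS extracts, three biological replicates.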
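For thermal stability score vs G1/S (z-score of summed log2 fold changes over temperatures) in this document: synchronized HeLa Kyoto cells, proteins quantified by TMT10plex mass spectrometry, three biological replicates, mitosis taken 0.5 h after nocodazole release, G1/S directly after double thymidine block.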

With “MDRSKENCISGPVKATAPVGGPKRVLVTQQFPCQNPLPVNSGQAQRVLCPSNSSQRIPLQAQKLVSSHKPVQNQKQKQLQATSVPHPVSRPLNNTQKSKQPLPSAPENNPEEELASKQKNEESKKRQWALEDFEIGRPLGKGKFGNVYLAREKQSKFILALKVLFKAQLEKAGVEHQLRREVEIQSHLRHPNILRLYGYFHDATRVYLILEYAPLGTVYRELQKLSKFDEQRTATYITELANALSYCHSKRVIHRDIKPENLLLGSAGELKIADFGWSVHAPSSRRTTLCGTLDYLPPEMIEGRMHDEKVDLWSLGVLCYEFLVGKPPFEANTYQETYKRISRVEFTFPDFVTEGARDLISRLLKHNPSQRPMLREVLEHPWITANSSKPSNCQNKESASKQS [AURKA]”, the “solubility change mitosis (log2)” value with HeLa Kyoto [1] is -0.0266. Also, in the series on HeLa Kyoto [2], the “solubility in G1/S (log2)” value is -0.00432. Besides, the thermal stability score is -0.0408 in the series with HeLa Kyoto [3] (setting [5]) and -0.506 with HeLa Kyoto [3] (cell cycle stage: mitosis). The figures for the melting temperature in the series with HeLa Kyoto [4] (cell cycle stage: G1/S) and in the series with HeLa Kyoto [4] (cell cycle stage: mitosis) were 50 °C and 50.8 °C, respectively.
As to “MAAETRNVAGAEAPPPQKRYYRQRAHSNPMADHTLRYPVKPEEMDWSELYPEFFAPLTQNQSHDDPKDKKEKRAQAQVEFADIGCGYGGLLVELSPLFPDTLILGLEIRVKVSDYVQDRIRALRAAPAGGFQNIACLRSNAMKHLPNFFYKGQLTKMFFLFPDPHFKRTKHKWRIISPTLLAEYAYVLRVGGLVYTITDVLELHDWMCTHFEEHPLFERVPLEDLSEDPVVGHLGTSTEEGKKVLRNGGKNFPAIFRRIQDPVLQAVTSQTSLPGH [METTL1]”, the “solubility change mitosis (log2)” value with HeLa Kyoto [1] is -0.075. Further, the “solubility in G1/S (log2)” value with HeLa Kyoto [2] stood at 0.231. Further, the results for the thermal stability score with HeLa Kyoto [3] (setting [5]) and in the series on HeLa Kyoto [3] (cell cycle stage: mitosis) were 0.937 and 2.85, respectively. The figures for the melting temperature in the series with HeLa Kyoto [4] (cell cycle stage: G1/S) and with HeLa Kyoto [4] (cell cycle stage: mitosis) were 52.4 °C and 54.7 °C, respectively.
With “MAAAEAGGDDARCVRLSAERAQALLADVDTLLFDCDGVLWRGETAVPGAPEALRALRARGKRLGFITNNSSKTRAAYAEKLRRLGFGGPAGPGASLEVFGTAYCTALYLRQRLAGAPAPKAYVLGSPALAAELEAVGVASVGVGPEPLQGEGPGDWLHAPLEPDVRAVVVGFDPHFSYMKLTKALRYLQQPGCLLVGTNMDNRLPLENGRFIAGTGCLVRAVEMAAQRQADIIGKPSRFIFDCVSQEYGINPERTVMVGDRLDTDILLGATCGLKTILTLTGVSTLGDVKNNQESDCVSKKKMVPDFYVDSIADLLPALQG [PGP]”, the “solubility change mitosis (log2)” value in the series with HeLa Kyoto [1] is -0.00434. Further, the “solubility in G1/S (log2)” value in the series with HeLa Kyoto [2] was 0.536. Besides, the thermal stability score in the series on HeLa Kyoto [3] (setting [5]) is -0.684; with HeLa Kyoto [3] (cell cycle stage: mitosis), -1.2. The values for the melting temperature with HeLa Kyoto [4] (cell cycle stage: G1/S) and with HeLa Kyoto [4] (cell cycle stage: mitosis) were 56.8 °C and 58.2 °C, respectively.
With “MPALPLDQLQITHKDPKTGKLRTSPALHPEQKADRYFVLYKPPPKDNIPALVEEYLERATFVANDLDWLLALPHDKFWCQVIFDETLQKCLDSYLRYVPRKFDEGVASAPEVVDMQKRLHRSVFLTFLRMSTHKESKDHFISPSAFGEILYNNFLFDIPKILDLCVLFGKGNSPLLQKMIGNIFTQQPSYYSDLDETLPTILQVFSNILQHCGLQGDGANTTPQKLEERGRLTPSDMPLLELKDIVLYLCDTCTTLWAFLDIFPLACQTFQKHDFCYRLASFYEAAIPEMESAIKKRRLEDSKLLGDLWQRLSHSRKKLMEIFHIILNQICLLPILESSCDNIQGFIEEFLQIFSSLLQEKRFLRDYDALFPVAEDISLLQQASSVLDETRTAYILQAVESAWEGVDRRKATDAKDPSVIEEPNGEPNGVTVTAEAVSQASSHPENSEEEECMGAAAAVGPAMCGVELDSLISQVKDLLPDLGEGFILACLEYYHYDPEQVINNILEERLAPTLSQLDRNLDREMKPDPTPLLTSRHNVFQNDEFDVFSRDSVDLSRVHKGKSTRKEENTRSLLNDKRAVAAQRQRYEQYSVVVEEVPLQPGESLPYHSVYYEDEYDDTYDGNQVGANDADSDDELISRRPFTIPQVLRTKVPREGQEEDDDDEEDDADEEAPKPDHFVQDPAVLREKAEARRMAFLAKKGYRHDSSTAVAGSPRGHGQSRETTQERRKKEANKATRANHNRRTMADRKRSKGMIPS [ASCC2]”, in the series on HeLa Kyoto [1], the “solubility change mitosis (log2)” value amounted to 0.0692. The “solubility in G1/S (log2)” value in the series on HeLa Kyoto [2] is -0.248. The thermal stability score amounted to 0.236 in the series on HeLa Kyoto [3] (setting [5]) and 1.02 with HeLa Kyoto [3] (cell cycle stage: mitosis). Further, the results for the melting temperature in the series on HeLa Kyoto [4] (cell cycle stage: G1/S) and with HeLa Kyoto [4] (cell cycle stage: mitosis) were 52.1 °C and 49.5 °C, respectively.
Turning to “MSTGGDFGNPLRKFKLVFLGEQSVGKTSLITRFMYDSFDNTYQATIGIDFLSKTMYLEDRTVRLQLWDTAGQERFRSLIPSYIRDSTVAVVVYDITNVNSFQQTTKWIDDVRTERGSDVIIMLVGNKTDLADKRQVSIEEGERKAKELNVMFIETSAKAGYNVKQLFRRVAAALPGMESTQDRSREDMIDIKLEKPQEQPVSEGGCSC [RAB6A]”, the “solubility change mitosis (log2)” value with HeLa Kyoto [1] is -0.0808. In addition, the “solubility in G1/S (log2)” value in the series with HeLa Kyoto [2] is -0.0491. In addition, the thermal stability score with HeLa Kyoto [3] (setting [5]) was -2.97; in the series on HeLa Kyoto [3] (cell cycle stage: mitosis) it was -6.05. For the same sequence, the values for the melting temperature in the series with HeLa Kyoto [4] (cell cycle stage: G1/S) and in the series with HeLa Kyoto [4] (cell cycle stage: mitosis) were 56.5 °C and 57.1 °C, respectively.
With “MEVKPPPGRPQPDSGRRRRRRGEEGHDPKEPEQLRKLFIGGLSFETTDDSLREHFEKWGTLTDCVVMRDPQTKRSRGFGFVTYSCVEEVDAAMCARPHKVDGRVVEPKRAVSREDSVKPGAHLTVKKIFVGGIKEDTEEYNLRDYFEKYGKIETIEVMEDRQSGKKRGFAFVTFDDHDTVDKIVVQKYHTINGHNCEVKKALSKQEMQSAGSQRGRGGGSGNFMGRGGNFGGGGGNFGRGGNFGGRGGYGGGGGGSRGSYGGGDGGYNGFGGDGGNYGGGPGYSSRGGYGGGGPGYGNQGGGYGGGGGYDGYNEGGNFGGGNYGGGGNYNDFGNYSGQQQSNYGPMKGGSFGGRSSGSPYGGGYGSGGGSGGYGSRRF [HNRNPA3]”, the “solubility change mitosis (log2)” value in the series on HeLa Kyoto [1] was found to be 0.411. In addition, in the series on HeLa Kyoto [2], the “solubility in G1/S (log2)” value was -0.252. Further, the thermal stability score in the series with HeLa Kyoto [3] (setting [5]) is 2.6; with HeLa Kyoto [3] (cell cycle stage: mitosis), 4.71. The melting temperature with HeLa Kyoto [4] (cell cycle stage: G1/S) worked out at 47.8 °C; in the series with HeLa Kyoto [4] (cell cycle stage: mitosis) it was 49.3 °C.
